# Measurements taken from US20150344570A1 (published 2015).
# T1: FcgRIIaR (human, UniProt P12318 34-217)
# T1 construct: extracellular domain; also called FcγRIIa R; FcγRIIa type R; not shown: His tag at the C terminus
# T1 sequence (looked up): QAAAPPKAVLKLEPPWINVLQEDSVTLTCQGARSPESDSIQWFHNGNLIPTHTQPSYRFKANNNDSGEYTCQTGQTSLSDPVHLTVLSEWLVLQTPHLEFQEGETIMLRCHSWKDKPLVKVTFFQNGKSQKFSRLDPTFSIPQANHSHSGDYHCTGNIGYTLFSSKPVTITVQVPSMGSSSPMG
# T2: FcgRIIaH (human, UniProt P12318 34-217)
# T2 construct: extracellular domain; also called FcγRIIa H; FcγRIIa type H; not shown: His tag at the C terminus
# T2 sequence (looked up): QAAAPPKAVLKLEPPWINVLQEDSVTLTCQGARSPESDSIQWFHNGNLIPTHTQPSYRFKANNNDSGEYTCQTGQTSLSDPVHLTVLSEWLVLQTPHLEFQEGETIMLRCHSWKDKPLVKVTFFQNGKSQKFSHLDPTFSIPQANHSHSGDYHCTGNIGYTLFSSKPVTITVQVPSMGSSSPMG
# T3: FcgRIIb (human, UniProt P31994 43-217)
# T3 construct: extracellular domain; also called FcγRIIb; 2b; not shown: His tag at the C terminus
# T3 sequence (looked up): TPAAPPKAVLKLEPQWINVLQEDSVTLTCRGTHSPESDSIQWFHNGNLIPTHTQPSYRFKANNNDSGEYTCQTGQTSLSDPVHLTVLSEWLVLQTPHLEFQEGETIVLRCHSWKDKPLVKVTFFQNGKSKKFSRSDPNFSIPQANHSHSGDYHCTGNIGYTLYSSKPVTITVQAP
# Experiments:
# FcgRIIIaV [1] = target: T4, FcgRIIIaV (human, UniProt P08637 17-208); test: SPR (Biacore); KD of H240-Kn033/H240-Hl033/L73-k0 divided by KD of the variant
# T4 construct: extracellular domain; Polymorphic site after J. Clin. Invest; also called FcγRIIIa V; 3aV; not shown: His tag at the C terminus
# FcgRIIaR [2] = target: T1, FcgRIIaR; test: as above
# FcgRIIIaF [3] = target: T5, FcgRIIIaF (human, UniProt P08637 17-208); test: as above
# T5 construct: extracellular domain; Polymorphic site after J. Clin. Invest; also called FcγRIIIa F; 3aF; not shown: His tag at the C terminus
# FcgRIIaH [4] = target: T2, FcgRIIaH; test: as above
# FcgRIIb [5] = target: T3, FcgRIIb; test: as above
# FcgRIIIaV [6] = target: T4, FcgRIIIaV; test: SPR (Biacore), antibody captured, FcgR extracellular domain as analyte
# Method: (§1) Next, the amino acid at position 330 was examined. The A330M alteration has been introduced into H240-Hl076 of H240-Kn125/H240-Hl076/L73-k0. […] L73-k0 was used as the common antibody L chain. Binding of the produced variants to FcgRIa, FcgRIIaR, FcgRIIaH, FcgRIIb, FcgRIIIaF, and FcgRIIIaV was measured according to the method of Reference Example 8.
# (§2) Analysis of interaction between objective antibody and the FcγR was carried out using Biacore T100 (GE Healthcare), Biacore T200, Biacore A100, and Biacore 4000. HBS-EP+ (GE Healthcare) was used as the running buffer, and the measurement temperature was set to 25° C. Chips produced by immobilizing the antigen peptide by the amine coupling method to a Series S sensor Chip CM5 (GE Healthcare), chips produced by allowing preliminarily biotinylated antigen peptides to interact with and immobilize onto a Series S Sensor Chip SA (certified) (GE Healthcare), chips produced by immobilizing Protein L (ACTIGEN, BioVision) to Series S Sencor Chip CM5 (GE Healthcare), or chips produced by immobilizing Protein A/G (Thermo Scientific) to Series S Sencor Chip CM5 (GE Healthcare) were used. Antibodies of interest were captured onto these chips, and allowed to interact to each FcγR diluted with running buffer. To regenerate and repeatedly use the chip, the antibodies captured onto the chip were washed off by reacting 10 mM glycine-HCl, pH 1.5.
# FcgRIa = target: T6, FcgRIa (human, UniProt P12314 16-292); test: as above
# T6 construct: extracellular domain; also called FcγRIa; FcγRI; not shown: His tag at the C terminus
# Method: as §1, §2
# FcgRIIaR [7] = target: T1, FcgRIIaR; test: as above
# Method: as §1, §2
# FcgRIIIaF [8] = target: T5, FcgRIIIaF; test: as above
# Method: as §1, §2
# FcgRIIaH [9] = target: T2, FcgRIIaH; test: as above
# Method: as §1, §2
# FcgRIIb [10] = target: T3, FcgRIIb; test: as above
# Method: as §1, §2
# T4 sequence (P08637 17-208 F176V limits assumed): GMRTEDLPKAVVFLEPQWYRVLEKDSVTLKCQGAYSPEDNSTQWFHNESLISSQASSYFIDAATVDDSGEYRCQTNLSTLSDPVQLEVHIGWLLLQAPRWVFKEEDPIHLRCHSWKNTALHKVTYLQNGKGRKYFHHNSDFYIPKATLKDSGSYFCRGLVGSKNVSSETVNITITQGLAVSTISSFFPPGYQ
# T5 sequence (P08637 17-208): as the sequence (P08637 17-208 F176V limits assumed) above, with V160F counted along it
# T6 sequence (P12314 16-292): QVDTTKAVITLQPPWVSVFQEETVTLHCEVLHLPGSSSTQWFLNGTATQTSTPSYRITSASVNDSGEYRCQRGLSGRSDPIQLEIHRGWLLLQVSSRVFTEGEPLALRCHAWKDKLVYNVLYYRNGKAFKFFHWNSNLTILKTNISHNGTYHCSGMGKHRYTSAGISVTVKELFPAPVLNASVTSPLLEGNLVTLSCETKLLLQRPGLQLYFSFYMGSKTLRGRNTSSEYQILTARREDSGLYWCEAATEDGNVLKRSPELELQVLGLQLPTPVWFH
fold 3aV (FcgRIIIaV [1]),fold 2aR (FcgRIIaR [2]),fold 3aF (FcgRIIIaF [3]),fold 2aH (FcgRIIaH [4]),fold 2b (FcgRIIb [5]),Kd (FcgRIIIaV [6]),Kd (FcgRIa),Kd (FcgRIIaR [7]),Kd (FcgRIIIaF [8]),Kd (FcgRIIaH [9]),Kd (FcgRIIb [10]),Binder
100 fold,1.1 fold,70.7 fold,3.5 fold,0.5 fold,0.48 nM,0.065 nM,650 nM,4.1 nM,150 nM,6900 nM,"H240-Kn125/H240-Hl210/L73-k0 (antibody, human IgG1, kappa) heavy 1: QDQLVQSGAEVKKPGASVKVSCKASGFNIKDTYIQWVRQAPGQGLEWMGRIDPLRKQTKYREKFEGRVTITADTSTNTAYMELSSLRSEDTAVYYCVRSGREFDYWGQGTLVTVSSASTKGPSVFPLAPSSKSTSGGTAALGCLVKDYFPEPVTVSWNSGALTSGVHTFPAVLQSSGLYSLSSVVTVPSSSLGTQTYICNVNHKPSNTKVDKKVEPKSCDKTHTCPPCPAPEYQWGPMVFLFPPKPKDTLMISRTPEVTCVVVDVSDEEPEVKFNWYVDGVEVHNAKTKPREEQYNATYRVVSVLTVLHQDWLNGKEYKCKVSNKALPAPIEKTISKAKGQPREPQVCTLPPSRDELTKNQVSLWCLVKGFYPSDIAVEWESNGQPENNYKTTPPVLDSDGSFFLYSKLTVDKSRWQQGNVFSCSVMHEALHNHYTQKSLSLSP heavy 2: QDQLVQSGAEVKKPGASVKVSCKASGFNIKDTYIQWVRQAPGQGLEWMGRIDPLRKQTKYREKFEGRVTITADTSTNTAYMELSSLRSEDTAVYYCVRSGREFDYWGQGTLVTVSSASTKGPSVFPLAPSSKSTSGGTAALGCLVKDYFPEPVTVSWNSGALTSGVHTFPAVLQSSGLYSLSSVVTVPSSSLGTQTYICNVNHKPSNTKVDKKVEPKSCDKTHTCPPCPAPELLGGPSVFLFPPKPKDTLMISRTPEVTCVVVDVSHEEPEVKFNWYVDGVEVHNAKTKPREEQYNSTYRVVSVLTVLHQDWLNGKEYKCKVSNDALPAPIEETISKAKGQPREPQVYTLPPSRCELTKNQVSLSCAVKGFYPSDIAVEWESNGQPENNYKTTPPVLDSDGSFFLVSKLTVDKSRWQQGNVFSCSVMHEALHNHYTQKSLSLSP light: DIQMTQSPSSLSASVGDRVTITCRASQDIHKYIAWYQQKPGQAPRLLIQYTSTLQPGVPSRFSGSGSGTDYTFTISSLQPEDIATYYCLQYEQLRTFGGGTKVEIKRTVAAPSVFIFPPSDEQLKSGTASVVCLLNNFYPREAKVQWKVDNALQSGNSQESVTEQDSKDSTYSLSSTLTLSKADYEKHKVYACEVTHQGLSSPVTKSFNRGEC"
80 fold,1 fold,107 fold,2.5 fold,0.4 fold,0.6 nM,0.073 nM,770 nM,2.7 nM,210 nM,8300 nM,"H240-Kn125/H240-Hl216/L73-k0 (antibody, human IgG1, kappa) heavy 1: QDQLVQSGAEVKKPGASVKVSCKASGFNIKDTYIQWVRQAPGQGLEWMGRIDPLRKQTKYREKFEGRVTITADTSTNTAYMELSSLRSEDTAVYYCVRSGREFDYWGQGTLVTVSSASTKGPSVFPLAPSSKSTSGGTAALGCLVKDYFPEPVTVSWNSGALTSGVHTFPAVLQSSGLYSLSSVVTVPSSSLGTQTYICNVNHKPSNTKVDKKVEPKSCDKTHTCPPCPAPEYQWGPMVFLFPPKPKDTLMISRTPEVTCVVVDVSDEEPEVKFNWYVDGVEVHNAKTKPREEQYNATYRVVSVLTVLHQDWLNGKEYKCKVSNKALPAPIEKTISKAKGQPREPQVCTLPPSRDELTKNQVSLWCLVKGFYPSDIAVEWESNGQPENNYKTTPPVLDSDGSFFLYSKLTVDKSRWQQGNVFSCSVMHEALHNHYTQKSLSLSP heavy 2: QDQLVQSGAEVKKPGASVKVSCKASGFNIKDTYIQWVRQAPGQGLEWMGRIDPLRKQTKYREKFEGRVTITADTSTNTAYMELSSLRSEDTAVYYCVRSGREFDYWGQGTLVTVSSASTKGPSVFPLAPSSKSTSGGTAALGCLVKDYFPEPVTVSWNSGALTSGVHTFPAVLQSSGLYSLSSVVTVPSSSLGTQTYICNVNHKPSNTKVDKKVEPKSCDKTHTCPPCPAPELLGGPSVFLFPPKPKDTLMISRTPEVTCVVVDVSHEEPEVKFNWYVDGVEVHNAKTKPREEQYNSTYRVVSVLTVLHQDWLNGKEYKCKVSNDALPIPIEETISKAKGQPREPQVYTLPPSRCELTKNQVSLSCAVKGFYPSDIAVEWESNGQPENNYKTTPPVLDSDGSFFLVSKLTVDKSRWQQGNVFSCSVMHEALHNHYTQKSLSLSP light: DIQMTQSPSSLSASVGDRVTITCRASQDIHKYIAWYQQKPGQAPRLLIQYTSTLQPGVPSRFSGSGSGTDYTFTISSLQPEDIATYYCLQYEQLRTFGGGTKVEIKRTVAAPSVFIFPPSDEQLKSGTASVVCLLNNFYPREAKVQWKVDNALQSGNSQESVTEQDSKDSTYSLSSTLTLSKADYEKHKVYACEVTHQGLSSPVTKSFNRGEC"
126 fold,1.6 fold,181 fold,3.5 fold,0.8 fold,0.38 nM,0.08 nM,450 nM,1.6 nM,150 nM,4400 nM,"H240-Kn125/H240-Hl214/L73-k0 (antibody, human IgG1, kappa) heavy 1: QDQLVQSGAEVKKPGASVKVSCKASGFNIKDTYIQWVRQAPGQGLEWMGRIDPLRKQTKYREKFEGRVTITADTSTNTAYMELSSLRSEDTAVYYCVRSGREFDYWGQGTLVTVSSASTKGPSVFPLAPSSKSTSGGTAALGCLVKDYFPEPVTVSWNSGALTSGVHTFPAVLQSSGLYSLSSVVTVPSSSLGTQTYICNVNHKPSNTKVDKKVEPKSCDKTHTCPPCPAPEYQWGPMVFLFPPKPKDTLMISRTPEVTCVVVDVSDEEPEVKFNWYVDGVEVHNAKTKPREEQYNATYRVVSVLTVLHQDWLNGKEYKCKVSNKALPAPIEKTISKAKGQPREPQVCTLPPSRDELTKNQVSLWCLVKGFYPSDIAVEWESNGQPENNYKTTPPVLDSDGSFFLYSKLTVDKSRWQQGNVFSCSVMHEALHNHYTQKSLSLSP heavy 2: QDQLVQSGAEVKKPGASVKVSCKASGFNIKDTYIQWVRQAPGQGLEWMGRIDPLRKQTKYREKFEGRVTITADTSTNTAYMELSSLRSEDTAVYYCVRSGREFDYWGQGTLVTVSSASTKGPSVFPLAPSSKSTSGGTAALGCLVKDYFPEPVTVSWNSGALTSGVHTFPAVLQSSGLYSLSSVVTVPSSSLGTQTYICNVNHKPSNTKVDKKVEPKSCDKTHTCPPCPAPELLGGPSVFLFPPKPKDTLMISRTPEVTCVVVDVSHEEPEVKFNWYVDGVEVHNAKTKPREEQYNSTYRVVSVLTVLHQDWLNGKEYKCKVSNDALPFPIEETISKAKGQPREPQVYTLPPSRCELTKNQVSLSCAVKGFYPSDIAVEWESNGQPENNYKTTPPVLDSDGSFFLVSKLTVDKSRWQQGNVFSCSVMHEALHNHYTQKSLSLSP light: DIQMTQSPSSLSASVGDRVTITCRASQDIHKYIAWYQQKPGQAPRLLIQYTSTLQPGVPSRFSGSGSGTDYTFTISSLQPEDIATYYCLQYEQLRTFGGGTKVEIKRTVAAPSVFIFPPSDEQLKSGTASVVCLLNNFYPREAKVQWKVDNALQSGNSQESVTEQDSKDSTYSLSSTLTLSKADYEKHKVYACEVTHQGLSSPVTKSFNRGEC"
